{"source": "patent US20260209355A1", "about": "(BIOND BIOLOGICS, published 2026)", "binders": {"B1": {"name": "VHH clone 2A1 (VHH)", "VHH": "EVQLVESGGGLVQAGESLRLSCAASGSIASINAMGWYRQAPGSQRELVAAISGGGDTYYADSVKGRFTISRDNAKTTVYLQMNSLRPEDTAVYYCVVDLYGSDYWDWGQGTQVTVSS", "modifications": "FITC conjugated in the FACS assay of FIG. 6", "notes": "Produced recombinantly in CHO cells; from a naive llama VHH phage library; The printed text reads 'EVOLVESGGG' (probably Q); also called VHH #2A1"}, "B2": {"name": "VHH clone 4A4 (VHH)", "VHH": "EVQLVESGGGLVQAGGSLRLSCAASGSLFSINAMAWYRQAPGKQRELVAAITSSGSTNYANSVKGRFTVSRDNAKNTMYLQMNSLKPEDTAVYYCVVDEYGSDYWIWGQGTQVTVSS", "notes": "Produced recombinantly in CHO cells"}, "B3": {"name": "VHH clone 4A1 (VHH)", "VHH": "QVQLVESGGGLVQAGGSLRLSCAASGSIFSINAMGWYRQAPGKQRERVAAITSGGSTNYADSVKGRFTISRDNAKNTVYLQMNNLEPRDAGVYYCVVDLYGEDYWIWGQGTQVTVSS", "notes": "as for B2"}}, "key": {"membranal human CD28": {"target": "T1, membranal human CD28 (human, UniProt P10747 19-220)", "T1 construct": "also called mCD28; HEK cells overexpressing human CD28", "assay": "FACS, FITC conjugated VHH on HEK cells overexpressing CD28"}, "[1]": {"target": "T2, L145K mutated biotinylated and Myc tagged human CD28 stalk region dimeric peptide (human, C-terminal biotin; Cysteine at position 141 (CD28 numbering) forms the disulfide linkage of the dimer)", "T2 construct": "also called L145K CD28 stalk region dimeric peptide; mutant peptide", "T2 peptide": "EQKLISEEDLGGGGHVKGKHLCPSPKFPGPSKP", "assay": "direct ELISA, peptide on neutravidin plate, anti His tag-HRP", "description": "(§1) Biotin conjugated wild-type or L145K CD28 stalk region dimeric peptides were immobilized on neutravidin coated ELISA maxi-sorb plates. A dilution series of VHH clones (0.2-5 μg/mL) and an irrelevant VHH clone (top left chart) was performed and detection of bound VHH was done with anti His tag-HRP conjugated antibody and development was done with TMB."}, "[2]": {"target": "T3, c-Myc conjugated and biotinylated human CD28 stalk region dimeric peptide (wild-type) (human, C-terminal biotin; Cysteine at position 141 (CD28 numbering) forms the disulfide linkage of the dimer)", "T3 construct": "the Methods describe only this biotinylated dimeric peptide design, so it is used here; also called Biotin conjugated CD28 stalk region dimeric peptide; WT peptide", "T3 peptide": "T2 peptide with K26L", "assay": "phage library screen by ELISA and flow cytometry against recombinant CD28 extracellular domain and the dimeric stalk region peptide"}, "[3]": {"target": "T3, c-Myc conjugated and biotinylated human …", "assay": "direct ELISA, WT stalk dimeric peptide on neutravidin plate, VHH 0.2-5 µg/mL", "description": "as §1"}}, "note": "Positions count from the first letter of the chain named.", "data": [{"binder": "B1", "values": [{"measurement": "binding result", "setting": "membranal human CD28", "value": "binds"}, {"measurement": "binding result", "setting": "[1]", "value": "no binding (tested: 0.2-5 µg/mL)"}, {"measurement": "binding result", "setting": "[2]", "value": "binds"}]}, {"binder": "B2", "values": [{"measurement": "binding result", "setting": "[1]", "value": "no binding (tested: 0.2-5 µg/mL)"}, {"measurement": "binding result", "setting": "[3]", "value": "binds"}]}, {"binder": "B3", "values": [{"measurement": "binding result", "setting": "[1]", "value": "no binding (tested: 0.2-5 µg/mL)"}, {"measurement": "binding result", "setting": "[3]", "value": "binds"}]}]}
